# Assay results taken from the DeepSol protein solubility set.
# Assay: soluble on expression in E. coli; label from the status in PepcDB or PDB records
row,Sequence,soluble on expression in E. coli
1,MPSYKLTYFDACGFGESARMLFHLGGVPYEDVRLPTINAVPGFQSDEFSALKDKTPFGRFTVLSIDGFDLAQSSAIHRYLARKFGYAGKTPEDEAFADSIVDQFNEYYASLHPYRDAVKTGKTMEEVKQIHDKVYIPAKNLMFKILTRILKENKSGFLVGDGLTWADLVVADHLYTLTNLKELDPEDPIHLTLRKFQEKIFNLTELKDYIETRPVTLV,not soluble
2,WNHDEEARGSVRWRTLFDTALTSENVILYAQSVHSISDATHKKALHEELTCRIRDPENGIVKASRFISAIRQVGYEAQMDRAVLHKFLKDFKENFDSSKNYALNLNVTPFSSREYFKWFRDELLQLSREQRKCLNFEFVEAQFVRHLDFMRPVAKMLAGLGCHLMVGQAGRTIVSTHYLKEVDIRYLKLHRSLVAKIDQRHENQLFVRSMLGAAANSKTKIIAVGIENQQELNTLLELGVYGGQGRYFSAE,not soluble
3,MDEPVDVELVLAVDVSLSMSADELEIQRHGYAAALTHDNVLQAIADGAHGKIAVTYVEWAGTTWQRVIVPWTVIANRADAERVVAQLSAQPPNSARRTSISGALEFGSDLFAESGYEGTKRVIDISGDGPNNQGAPVNLTRDGVVRQGIVINGLPLMTRGGLSGAYDVNDLDRYYSDCVIGGPGAFMIPVNDWTQFPEAIRRKLVLELAGLEHHHHHH,soluble
4,IQTTAPPVKESSFVEKMKKTGRNIIVFYGSQTGTAEEFANRLSKDAHRYGMRGMSADPEEYDLADLSSLPEIDKSLVVFCMATYGEGDPTDNAQDFYDWLQETDVDLTGVKFAVFGLGNKTYEHFNAMGKYVDQRLEQLGAQRIFELGLGDDDGNLEEDFITWREQFWPAVCEFFGVEATGEESSIRQYELVVHEDMDVAKVYTGEMGRLKSYENQKPPFDAKNPFLAAVTANRKLNQGTERHLMHLELDISDSKIRYESGDHVAVYPANDSALVNQIGEILGADLDVIMSLNNLDEESNKKHPFPCPTTYRTALTYYLDITNPPRTNVLYELAQYASEPSEQEHLHKMASSSGEGKELYLSWVVEARRHILAILQDYPSLRPPIDHLCELLPRLQARYYSIASSSKVHPNSVHICAVAVEYEAKSGRVNKGVATSWLRAKEPAGENGGRALVPMFVRKSQFRLPFKSTTPVIMVGPGTGIAPFMGFIQERAWLREQGKEVGETLLYYGCRRSDEDYLYREELARFHKDGALTQLNVAFSREQAHKVYVQHLLKRDREHLWKLIHEGGAHIYVCGDARNMAKDVQNTFYDIVAEFGPMEHTQAVDYVKKLMTKGRYSLDVGS,soluble
5,MSLKTFTDRWRQLEWDDIRLRINGKTAADVERALNAAHLSRDDLMALLSPAAADYLEPIAQRAQRLTRQRFGNTVSFYVPLYLSNLCANDCTYCGFSMSNRIKRKTLDEVDIQRECDAIRKLGFEHLLLVTGEHQAKVGMDYFRRHLPTIRRQFSSLQMEVQPLSQENYAELKTLGIDGVMVYQETYHEAIYAQHHLKGKKQDFFWRLETPDRLGRAGIDKIGLGALIGLSDNWRVDCYMVAEHLLWMQKHYWQSRYSVSFPRLRPCTGGVEPASVMDEKQLVQTICAFRLLAPEIELSLSTRESPWFRDHVIPLAINNVSAFSKTQPGGYADDHPELEQFSPHDARRPETVASALSAQGLQPVWKDWDSWLGRASQTREGHHHHHH,not soluble
6,MQTFVLATNSETVSQTLCSYLEGVLDLEDSVYAVNSQPGGDRTPPDAVADGKAALEVVSDRLGDQVSVETYQIIRGNSPADDIFDIAAEVDADELVIGVRKRSQTDRLIFGSVAQDIMRQSDYPMRVVPRD,not soluble
7,MSLEEINKIEVIEKSIEENTEKYEIKVKYPSIQGGEKEVTDKINKTIEDYTLNWINDIKLLGEEYSKEYEKAGKEMPKMEAYSLFEAFNTDEVISLPVSYYQYTGGAHGLTTKVSYNYNLKTGKELKLKDLFKEGFDYKSIIDKKVRGDIEKEKELYFDNGALFKGVNENQAYYLNRDGIIVYFQQYEIAPYSSGIREFKIPYGELKEGLIYKLGNEGHHHHHH,soluble
8,MSLTMPVNTIMGLFAKSPIKPLQRHVVCVNECCSHLINFFEVCNKGDWEKAGEIRAQISHLEKEADVLKREIRLKLPRGLFMPVDRSDMLELLTQQDKLANLAKDIAGRVYGRQLVIPEPLQENFIAYVRRCLDAANQAQNVINELDELLETGFKGREVTLVAEMIHQLDVIEDDTDSMQIRLRQQLMAIESKMNPIDVMFLYKILEWVGGIADQAQRVGARLELMLSRSEGHHHHHH,soluble
9,MSIMKTADRPHAMNRRQDAIFLEVFWARVRSIADEAAKLIVRTSFSTLSTEANDFTVVVTDSAGRCLTENSGSIPAFIGTLPATVQAVIAKYPHHTLRPGDVFITNDPWIGTGHLNDVCLVKPVFHLGKVVAFAATAGHVPDIGGRFRSVNAHELFEEGLQIPVIRLLDQGAPNEAILDMIRTNVRTPDQTAGDIWSQASAVELVARRLGEVLVEYALPGVDDIAEALFERGDRALRKAISALPDGQYRYAMQTDGFEQRLDLAVTVRIEGDAITCDFTGTSPQQPRAINCPLGYTTAMAVYAIKCLLVPDIPNSDGMLRAIRVEAPEHSLLNPARPAAVGGRASTGHYLPVLIFGAMHAVLPERVMAGAGSPLWSANISGTGADGLPMATVLFFNGGMGATCGKDGAAVMSWPSNISPTPVEVAERDIPLFFRYKRLRVDSGGPGQWRGGLGEEVCMVSRHDRPLSVVFLAERTREPAPGLGGGQAGVPGAVWINGVAVDVRERHLLNPGDELVMRTPGGGGFGPPGQRDPALADHDYRLGYSAAPGTARQS,not soluble
10,GPLGSGDVQVTEDAVRRYLTRKPMTTKDLLKKFQTKKTGLSSEQTVNVLAQILKRLNPERKMINDKMHFSLKE,soluble
11,MLIFEGKEISTDSEGYLKETTQWSEALAVAIAANEGIELSAEHWEVVRFVREFYLEFNTSPAIRMLVKAMANKFGEEKGNSRYLYRLFPKGPAKQATKIAGLPKPVKCI,not soluble
12,MFENTKKALETFRTAIECVKCKKPRGDLQYLGSSCKHAYCWECIATFQQKPSGKRSSVARHMCPSCAFPLDTSKITEAHMLKTCFDTLSELNDLLQKVGTTSLTQAEFACTQNIFNKEKTPADAVEKFLETQAHMPDEMGQLGEEDDDLMCKDENRENSNSPELDIFHDYSKEASPTRNSTKRPSTVSVHERKPKRTLTEILQRRSTAPAATGVATYAQAFGSSSNPVKAEIIEEDIFSKAIPLTKRQASMSASAKKQPKLEPEEPEEVPSTSRSRKNSIKSDKIERRSQSPMSFGEKSMSVKSEQRRSSYGTRRGEAVLVNSIRNNRIPQLRSAVEAGTCVNEKEDGKTPLYVAVENSSLEAVKILVEAGAVINASCGSTLETTLHEAVRRQNTQIVEYLLSKGASIKIRNIAGKTVEEMAKSDPKIRKIIEKFKTEQRVLQPVVAPPKSRLHFVQLIDEKMLTESEKRKLPGKINIVPADMDSPTHVVVTVDLKTRVLNINKEHIGEILKAIIKSGMIVSRDWLRACIIDPSKVDDDRSYMVQKVRWMEGEVFENTIEQWKKTITKMQPKLFAGCKFFIPKPKYNFLDRPALFEIIRSAGGQAAAREPIIDEKDPPPYHNANLKPNFVLYSLTHDIGDKFRDCTKYNLVSEQWLIEAILGCSITTPPH,not soluble
13,MGSDKIHHHHHHMQLDKIIAQNIVKRAMNIIGCSVNVMDHHGIIIASGNPARLNQLHTGAVLALRQNRMVEVDENLAEKWNFDAHPGINVPIQYLGNNIGVIGISGVPEQVKPYAELVKMTAELIIEQHILLEKESWNRRYKEEFILQLVKGNLSLAEIQQQAAFFSFALDIPRVVIIIKLLHPNADSLQQLVGYLEQPQFEQDVAILSLDQIIILQPFNIFAQFGKQLKKLLPKDYSQQDYKIAIGAQLECPAGEQLHLSYRSALSTLQYGLKHYPRKTLYFFEQYRLPVLLAGIADSWQAEELLKPLKALFSEENALLFKTLQQYFLSNCDLVLTAQKLFIHPNTLRYRLAKIEQITALSFNKIEDRFSLYLSTVLI,not soluble
14,MEEEQLLDYEEEQEEIQDKQPEVGGGDARKTKGTYASIHSSGFRDFLLKPEILRAIGDCGFEHPSEVQHECIPQAILGMDVVCQAKSGMGKTAVFVITTLQQLEPVDGEVSVVCMCHTRELAFQISKEYERFSKYLPGVKVAVFFGGMAIKKDEERLANDCPHIVVGTPGRMLALARSGKLKLDKVKYFVLDECDKMIGDADMRRDVQEIVKMTPQQKQVMMFSATLPKELRTVCKRFMQDPMEVYVDDEAKLTLHGLQQHYVKLKEAEKNRRLLNLLDALEFNQVVIFVKAVKRCEALHQLLTEQNFPSIAIHRQMAQEERLSRYQAFKDFQKRILVATDLFGRGMDIERVNIVFNYDMPEDSDSYLHRVARAGRFGTKGLAITFVSDENDAKTLNSVQDRFDISITELPEKIDVSTYIEGRTN,not soluble
15,MFLSTKFLPMSDTVIRIENLSKKYIIAHQQQERYTVLRDVIANQIKSLGSLINPKAKTENPNCEEFWALKDVSFEIKQGDRVGIIGRNGAGKSTLLKILSRITEPTHGCINIKGRIASLLEVGTGFHPELTGRENIYLNGAILGMSKAEIKRKFDEIVAFSEVEKFLDTPVKRYSSGMYVRLAFAVAAHLEPEILIVDEVLAVGDAAFQQKCLGKMEDVGKEGRTVLFVSHNMATVKQLCNCAFLLYQGNLIFQGNPHEAISQYMQKSTQGKHFHQANIYHHIKGDFRAEIEKITINNLDNSEIALSIFEKVKISIKYKINKPIDELDFFVLIYNLEDGEVQTSLFQRDSLSNIQPLSNYGTISVEFTNPLMPGKYTISAGIFDKNKRFVDWVELAESFYVESAFINGNKYDQRLGKISIQGTWYAE,not soluble
16,MSLEEVLKDIERDKEEKKKEIADAASRETAKIEKEREEKIQILQREYENRMREEGSRLYNSIIDKANVEARNIVRMRVQEILDQYGAKADELIKNLAKTKEYDDVLKKMIEVSRKALGPDCIVKVNTADKGRISDGNIKFEDIDPYGGVLATSRDGKIELDLRISSIRRDILERFKVRLYSMIED,not soluble
17,MGHHHHHHSHLRYMKESQVLLTLTNPVENLTHVTLFECEEGDPDDINSTAKVVVPPKELVLAGKDAAAEYDELAEPQDFQDDPDIIAFRKANKVGIFIKVTPQREEGEVTVCFKMKHDFKNLAAPIRPIEESDQGTEVIWLTQHVELSLGPLLP,soluble
18,MSLGNSRSRVGRSFCSQFLPEEQAEIDQLFDALSSDKNSPNVSSKSFSLKALQNHVGEALPPEMVTRLYDGMRRVDLTGKAKGPSENVSQEQFTASMSHLLKGNSEEKSLMIMKMISATEGPVKAREVQKFTEDLVGSVVHVLSHRQELRGWTGKEAPGPNPRVQVLAAQLLSDMKLQDGKRLLGPQWLDYDCDRAVIEDWVFRVPHVAIFLSVVICKGFLVLCSSLDLTTLVPERQVDQGRGFESILDVLSVMYINAQLPREQRHRWRLLFSSVLHGHSFSQLCGHITHRGPCVAVLEDHDKHVFGGFASCSWEVKPQFQGDNRCFLFSICPSMAVYTHTGYNDHYMYLNHGQQTIPNGLGMGGQHNYFGLWVDVDFGKGHSRAKPTCTTYNSPQLSAQENFQFDKMEVWAVGDPSEEQLAKGNKSILDADPEAQALLEISGHSRHSEGLREVPDDEGHHHHHH,soluble
